# Positions count from the first letter of the chain named.
# B1: BCMA-3L/3H full-length IgG4 antibody (antibody, V domains shown)
# VH: QIQLVQSGPELKKPGETVKISCKASGYTFTHYSINWVKRAPGKGLKWMGWINTESGEPTYAYDFKGRFAFSLETSASTAYLQINNLKYEDTATYFCALDYESAMDYWGQGTSVTVSS
# VL: DIVLTQSPPSLAMSLGKRATISCRASESVTIPGQHLINWYQQKPGQPPKLLIQRASNVESGVPARFSGSGSRTDFTLTIDPVEEDDVAVYYCLQTRGIPRTFGGGTKLEIKR
# notes: also called BCMA-3L/3H full length antibody
# B2: BCMA-3L/20H full-length IgG4 antibody (antibody, V domains shown)
# VH: B1 VH with S55T, G56R, P58S, E101K, S102Q
# VL: B1 VL
# notes: also called BCMA-3L/20H full length antibody; BCMA-3L/20H antibody clone
# Legend:
# [1] = molecular target: His-tagged BCMA protein (Homo sapiens (Human)) (UniProt Q02223); experiment: biolayer interferometry (Octet RED96), His-tagged BCMA loaded on Anti-Penta-HIS (HIS1K) sensors, antibody as analyte at 138.9 nM
# [2] = molecular target: human BCMA expressed on the cell surface (human) (UniProt Q02223); experiment: flow cytometry on K562-BCMA cells, goat anti-human IgG secondary
# [3] = molecular target: human BCMA expressed on the cell surface (human) (UniProt Q02223); experiment: flow cytometry on K562-BCMA cells, secondary antibody only
# [4] = molecular target: His-tagged BCMA protein (Homo sapiens (Human)) (UniProt Q02223); experiment: Octet RED96, His-tagged BCMA on anti-His biosensor tips, antibody as analyte
# His-tagged BCMA protein [5] = molecular target: T1, His-tagged BCMA protein (Homo sapiens (Human), UniProt Q02223 1-54); experiment: as above
# T1 construct: not shown: His tag
# T1 sequence: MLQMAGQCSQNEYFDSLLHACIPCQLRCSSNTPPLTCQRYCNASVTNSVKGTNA
# Procedure: (§1) Four full length antibodies were analyzed using the OctetRED96 technology for assessment of binding affinity by measurement of the equilibrium dissociation constant (KD). Within the group of four were the two candidate anti-BCMA antibodies (BCMA-3L/3H and BCMA-3L/20H), the positive anti-BCMA control described in Example 1, and the anti-CD19 negative control described in Example 1. In the experiment, His-tagged BCMA protein was loaded onto anti-His antibody coated biosensor tips and supplied antibodies were utilized as analytes to measure KD.
# His-tagged BCMA protein [6] = molecular target: T1, His-tagged BCMA protein; experiment: biolayer interferometry (Octet RED96), His-tagged BCMA loaded on Anti-Penta-HIS (HIS1K) sensors, antibody as analyte at 138.9 nM
# Procedure: as §1
Molecule,Response [1],% positive cells [2] [%],Kd (His-tagged BCMA protein [5]) [nM],koff (His-tagged BCMA protein [6]) [s⁻¹],kon (His-tagged BCMA protein [6]) [M⁻¹ s⁻¹],further results
full-length human IgG4 antibody expressing the anti-CD19 targeting moiety FMC63,0.0032,1.2,,,,
goat anti-human IgG secondary antibody,,,,,,% positive cells [3]: 0.18%
positive control IgG4 anti-BCMA antibody (comprising the VH and VL regions of the C11D5.3 antibody described in WO 2010/104949),2.31,10.1,,,,Kd [4]: < 0.001 nM; koff [1]: < 1e-07 s⁻¹; kon [1]: 236000 M⁻¹ s⁻¹
B1,,,1.38,0.000333,242000,
B2,,,2.14,0.000458,214000,

# Source: patent US20260028412A1 (PRECISION BIOSCIENCES, published 2026)
